Results reported in paper PMC13195613 (Blood Advances, 2026).

Molecular target: T1, recombinant activated factor VII (UniProt P08709 61-212; P08709 213-466)
T1 sequence (looked up) 1: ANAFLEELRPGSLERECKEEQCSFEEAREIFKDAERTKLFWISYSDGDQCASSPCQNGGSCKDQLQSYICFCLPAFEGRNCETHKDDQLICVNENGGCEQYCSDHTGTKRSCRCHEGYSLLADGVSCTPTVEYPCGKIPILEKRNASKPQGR
T1 sequence (looked up) 2: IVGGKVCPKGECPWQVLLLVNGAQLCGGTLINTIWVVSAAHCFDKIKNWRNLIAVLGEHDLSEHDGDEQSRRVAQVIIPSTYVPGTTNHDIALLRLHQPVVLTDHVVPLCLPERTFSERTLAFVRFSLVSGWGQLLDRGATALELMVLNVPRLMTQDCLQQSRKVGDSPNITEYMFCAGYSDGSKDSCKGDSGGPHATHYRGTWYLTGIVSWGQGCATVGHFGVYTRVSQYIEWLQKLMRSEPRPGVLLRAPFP
Test: BLI

binding result: binds
B1: endothelial cell protein C receptor (receptor)
chain: SQDASDGLQRLHMLQISYFRDPYHVWYQGNASLGGHLTHVLEGPDTNTTIIQLQPLQEPESWARTQSGLQSYLLQFHGLVRLVHQERTLAFPLTIRCFLGCELPPEGSRAHVFFEVAVNGSSFVSFRPERALWQADTQVTSGVVTFTLQQLNAYNRTRYELREFLEDTCVQYVQKHISAENTKGSQTSRSYTS
